Test results published in patent publication US20210388087A1 (Chugai, published 2021).

Biological target: T1, CD3 epsilon homodimer protein (UniProt P07766 23-126)
T1 construct: immobilized on Sensor chip CM4 by amine coupling; also called CD3 (CD3 epsilon)
Assay: SPR (Biacore T200), CD3 epsilon homodimer on CM4 chip, one-arm antibody as analyte, 25 C;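 further: homodimer attached to the sensor surface via amine coupling, HBS-EP+ used as running buffer during binding runs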

T1 sequence (P07766 23-126): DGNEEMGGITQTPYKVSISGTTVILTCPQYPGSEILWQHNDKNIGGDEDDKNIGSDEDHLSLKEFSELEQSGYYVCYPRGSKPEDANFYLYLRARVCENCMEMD

| ratio of amounts bound (altered form / CE115HA000) | Binder |
| --- | --- |
| 0.62 | CE115HA000 N54D one-arm antibody (antibody, human IgG1, kappa, L234A L235A, N297A, name in Kabat numbering) heavy: QVQLVESGGGVVQPGRSLRLSCAASGFTFSNAWMHWVRQAPGKGLEWVAQIKAKSNDYATYYAESVKGRFTISRDDSKNSLYLQMNSLKTEDTAVYYCRYVHYGAYYGVDAWGQGTTVTVSSASTKGPSVFPLAPSSKSTSGGTAALGCLVKDYFPEPVTVSWNSGALTSGVHTFPAVLQSSGLYSLSSVVTVPSSSLGTQTYICNVNHKPSNTKVDKKVEPKSCDKTHTCPPCPAPEAAGGPSVFLFPPKPKDTLMISRTPEVTCVVVDVSHEDPEVKFNWYVDGVEVHNAKTKPREEQYASTYRVVSVLTVLHQDWLNGKEYKCKVSNKALPAPIEKTISKAKGQPREPQVYTLPPSRCELTKNQVSLSCAVKGFYPSDIAVEWESNGQPENNYKTTPPVLDSDGSFFLVSKLTVDKSRWQQGNVFSCSVMHEALHNHYTQKSLSLSPDYKDDDDK EPKSSDKTHTCPPCPAPELLGGPSVFLFPPKPKDTLMISRTPEVTCVVVDVSHEDPEVKFNWYVDGVEVHNAKTKPREEQYNSTYRVVSVLTVLHQDWLNGKEYKCKVSNKALPAPIEKTISKAKGQPREPQVCTLPPSRDELTKNQVSLWCLVKGFYPSDIAVEWESNGQPENNYKTTPPVLDSDGSFFLYSKLTVDKSRWQQGNVFSCSVMHEALHNRYTQKSLSLSP light: DIVMTQSPLSLPVTPGEPASISCRSSQSLVHSNRNTYLHWYQQKPGQAPRLLIYKVSNRFSGVPDRFSGSGSGTDFTLKISRVEAEDVGVYYCGQGTQVPYTFGQGTKLEIKRTVAAPSVFIFPPSDEQLKSGTASVVCLLNNFYPREAKVQWKVDNALQSGNSQESVTEQDSKDSTYSLSSTLTLSKADYEKHKVYACEVTHQGLSSPVTKSFNRGEC |
| 1.12 | CE115HA000 N54F one-arm antibody (antibody, human IgG1, kappa, L234A L235A, N297A, name in Kabat numbering) heavy: QVQLVESGGGVVQPGRSLRLSCAASGFTFSNAWMHWVRQAPGKGLEWVAQIKAKSNFYATYYAESVKGRFTISRDDSKNSLYLQMNSLKTEDTAVYYCRYVHYGAYYGVDAWGQGTTVTVSSASTKGPSVFPLAPSSKSTSGGTAALGCLVKDYFPEPVTVSWNSGALTSGVHTFPAVLQSSGLYSLSSVVTVPSSSLGTQTYICNVNHKPSNTKVDKKVEPKSCDKTHTCPPCPAPEAAGGPSVFLFPPKPKDTLMISRTPEVTCVVVDVSHEDPEVKFNWYVDGVEVHNAKTKPREEQYASTYRVVSVLTVLHQDWLNGKEYKCKVSNKALPAPIEKTISKAKGQPREPQVYTLPPSRCELTKNQVSLSCAVKGFYPSDIAVEWESNGQPENNYKTTPPVLDSDGSFFLVSKLTVDKSRWQQGNVFSCSVMHEALHNHYTQKSLSLSPDYKDDDDK EPKSSDKTHTCPPCPAPELLGGPSVFLFPPKPKDTLMISRTPEVTCVVVDVSHEDPEVKFNWYVDGVEVHNAKTKPREEQYNSTYRVVSVLTVLHQDWLNGKEYKCKVSNKALPAPIEKTISKAKGQPREPQVCTLPPSRDELTKNQVSLWCLVKGFYPSDIAVEWESNGQPENNYKTTPPVLDSDGSFFLYSKLTVDKSRWQQGNVFSCSVMHEALHNRYTQKSLSLSP light: DIVMTQSPLSLPVTPGEPASISCRSSQSLVHSNRNTYLHWYQQKPGQAPRLLIYKVSNRFSGVPDRFSGSGSGTDFTLKISRVEAEDVGVYYCGQGTQVPYTFGQGTKLEIKRTVAAPSVFIFPPSDEQLKSGTASVVCLLNNFYPREAKVQWKVDNALQSGNSQESVTEQDSKDSTYSLSSTLTLSKADYEKHKVYACEVTHQGLSSPVTKSFNRGEC |
| 1.2 | CE115HA000 N54K one-arm antibody (antibody, human IgG1, kappa, L234A L235A, N297A, name in Kabat numbering) heavy: QVQLVESGGGVVQPGRSLRLSCAASGFTFSNAWMHWVRQAPGKGLEWVAQIKAKSNKYATYYAESVKGRFTISRDDSKNSLYLQMNSLKTEDTAVYYCRYVHYGAYYGVDAWGQGTTVTVSSASTKGPSVFPLAPSSKSTSGGTAALGCLVKDYFPEPVTVSWNSGALTSGVHTFPAVLQSSGLYSLSSVVTVPSSSLGTQTYICNVNHKPSNTKVDKKVEPKSCDKTHTCPPCPAPEAAGGPSVFLFPPKPKDTLMISRTPEVTCVVVDVSHEDPEVKFNWYVDGVEVHNAKTKPREEQYASTYRVVSVLTVLHQDWLNGKEYKCKVSNKALPAPIEKTISKAKGQPREPQVYTLPPSRCELTKNQVSLSCAVKGFYPSDIAVEWESNGQPENNYKTTPPVLDSDGSFFLVSKLTVDKSRWQQGNVFSCSVMHEALHNHYTQKSLSLSPDYKDDDDK EPKSSDKTHTCPPCPAPELLGGPSVFLFPPKPKDTLMISRTPEVTCVVVDVSHEDPEVKFNWYVDGVEVHNAKTKPREEQYNSTYRVVSVLTVLHQDWLNGKEYKCKVSNKALPAPIEKTISKAKGQPREPQVCTLPPSRDELTKNQVSLWCLVKGFYPSDIAVEWESNGQPENNYKTTPPVLDSDGSFFLYSKLTVDKSRWQQGNVFSCSVMHEALHNRYTQKSLSLSP light: DIVMTQSPLSLPVTPGEPASISCRSSQSLVHSNRNTYLHWYQQKPGQAPRLLIYKVSNRFSGVPDRFSGSGSGTDFTLKISRVEAEDVGVYYCGQGTQVPYTFGQGTKLEIKRTVAAPSVFIFPPSDEQLKSGTASVVCLLNNFYPREAKVQWKVDNALQSGNSQESVTEQDSKDSTYSLSSTLTLSKADYEKHKVYACEVTHQGLSSPVTKSFNRGEC |
| 0.98 | CE115HA000 N54G one-arm antibody (antibody, human IgG1, kappa, L234A L235A, N297A, name in Kabat numbering) heavy: QVQLVESGGGVVQPGRSLRLSCAASGFTFSNAWMHWVRQAPGKGLEWVAQIKAKSNGYATYYAESVKGRFTISRDDSKNSLYLQMNSLKTEDTAVYYCRYVHYGAYYGVDAWGQGTTVTVSSASTKGPSVFPLAPSSKSTSGGTAALGCLVKDYFPEPVTVSWNSGALTSGVHTFPAVLQSSGLYSLSSVVTVPSSSLGTQTYICNVNHKPSNTKVDKKVEPKSCDKTHTCPPCPAPEAAGGPSVFLFPPKPKDTLMISRTPEVTCVVVDVSHEDPEVKFNWYVDGVEVHNAKTKPREEQYASTYRVVSVLTVLHQDWLNGKEYKCKVSNKALPAPIEKTISKAKGQPREPQVYTLPPSRCELTKNQVSLSCAVKGFYPSDIAVEWESNGQPENNYKTTPPVLDSDGSFFLVSKLTVDKSRWQQGNVFSCSVMHEALHNHYTQKSLSLSPDYKDDDDK EPKSSDKTHTCPPCPAPELLGGPSVFLFPPKPKDTLMISRTPEVTCVVVDVSHEDPEVKFNWYVDGVEVHNAKTKPREEQYNSTYRVVSVLTVLHQDWLNGKEYKCKVSNKALPAPIEKTISKAKGQPREPQVCTLPPSRDELTKNQVSLWCLVKGFYPSDIAVEWESNGQPENNYKTTPPVLDSDGSFFLYSKLTVDKSRWQQGNVFSCSVMHEALHNRYTQKSLSLSP light: DIVMTQSPLSLPVTPGEPASISCRSSQSLVHSNRNTYLHWYQQKPGQAPRLLIYKVSNRFSGVPDRFSGSGSGTDFTLKISRVEAEDVGVYYCGQGTQVPYTFGQGTKLEIKRTVAAPSVFIFPPSDEQLKSGTASVVCLLNNFYPREAKVQWKVDNALQSGNSQESVTEQDSKDSTYSLSSTLTLSKADYEKHKVYACEVTHQGLSSPVTKSFNRGEC |
